Data on one compound can be found in patent US20210252159A1, “CONJUGATES OF CARTILAGE-HOMING PEPTIDES” (priority 2018, published 2021).

Positions of bridges follow the written chain, without caps; N, C: chain ends. Residues, ends and D or L forms follow the SMILES beside them. *: point of attachment. X1 = CC(CCC(C)C(=O)*)C(=O)OCC(=O)[C@@]1(O)[C@H](C)C[C@H]2[C@@H]3CCC4=CC(=O)C=C[C@]4(C)[C@@]3(F)[C@@H](O)C[C@@]21C

The data set concerns CIA rats. The method, then: Arthritis was induced in 9-week-old female Lewis rats (Envigo or Charles River Laboratories) by intradermal injection while anesthetized of 400 ug bovine type II collagen (Chondrex Inc, Redmond Wash.) in 2 adjacent 200 ul (1 mg/ml) doses on day 0. Collagen is prepared for injection by dissolving at 2 mg/ml in 0.01N glacial acetic acid in sterile water and rocking at 4° C. overnight then emulsifying in Freund's incomplete adjuvant (IFA, Sigma Aldrich). To emulsify, equal volumes of collagen solution and IFA are drawn up into separate syringes, which are joined by a 3-way stopcock. While on ice, the collagen and IFA are mixed by pressing between the two syringes rapidly for 10 minutes. Quality of the emulsification is tested after 10 minutes of mixing by dropping a small amount of mixture in water. A properly emulsified solution will remain as a discrete droplet and not disperse in the water. On day 7, rats are challenged with a second intradermal injection of 100 ug of collagen in 100 ul, 1 mg/ml, collagen in IFA solution prepared fresh. Body weight and ankle diameter measurements are recorded daily from day 7 through the end of the study. Ankle diameter was measure by a single researcher using a Fowler Digitrix 2 micrometer. Three measurements of each ankle were taken of the lateral dimension at the tarsus of lightly anesthetized rats. The reported ankle diameter measurement is the mean of the three measurements.
Arthritis was induced as described in four cohorts of 9-week-old female Lewis rats. Rats were randomly placed in treatment groups, balancing compound and dose groups across cohorts. […] Rats were dosed by tail vein injection on days 11 and 12 and euthanized on day 13 by CO2 asphyxiation. Immediately after cessation of respiratory movement, blood was collected by cardiac puncture, synovial fluid was collected from both knees, one hind limb was fixed in formalin and the alternate ankle was frozen on dry ice. Thymus, spleen, liver, and kidney weights were recorded.
CIA Response study design.
The aim of the study was to test the 4 conjugates with various linkers at two different doses in vivo in CIA rats to assess the following: ability to deliver sufficient dexamethasone to the joint to show functionality and potential therapeutic effect in the disease model.
CIA was induced in female Lewis rats (as described above, see EXAMPLE 21). Body weight and ankle joint diameters were measured on day 0 and then daily from day 7 until euthanasia. […] At euthanasia, synovial fluid was collected from both knees, one hind limb was fixed in formalin and the alternate ankle was frozen on dry ice. Thymus, spleen, liver, and kidney weights were recorded. Blood samples were submitted for CBC/Chemistry analysis, and the remaining plasma was frozen.

With `CC[C@H](C)[C@@H]1NC(=O)[C@@H]2CSSC[C@H](NC(=O)[C@H](CCCNC(=N)N)NC(=O)[C@@H](NC(=O)[C@H](CC(N)=O)NC(=O)[C@@H](NC(=O)[C@@H]3CCCN3C(=O)[C@@H](NC(=O)CNC(=O)[C@H](CO)NC(=O)CNC(=O)C(C)CCC(C)C(=O)OCC(=O)[C@@]3(O)[C@H](C)C[C@H]4[C@@H]5CCC6=CC(=O)C=C[C@]6(C)[C@@]5(F)[C@@H](O)C[C@@]43C)C(C)C)[C@@H](C)CC)C(C)C)C(=O)N[C@@H](CCCNC(=N)N)C(=O)NCC(=O)N[C@@H](CO)C(=O)N[C@@H](CCCNC(=N)N)C(=O)N[C@@H](CC(=O)O)C(=O)N[C@H]3CSSC[C@H](NC(=O)[C@H](CCCNC(=N)N)NC(=O)[C@H](CO)NC(=O)[C@H](CC(N)=O)NC1=O)C(=O)N[C@@H](Cc1c[nH]cn1)C(=O)N[C@H](C(=O)N[C@H](C(=O)N1CCC[C@H]1C(=O)O)[C@@H](C)O)CSSC[C@H](NC(=O)[C@@H]1CCCN1C(=O)[C@H](CC(=O)O)NC(=O)[C@H](CC(C)C)NC3=O)C(=O)N[C@@H](CCCNC(=N)N)C(=O)N[C@@H](CCCNC(=N)N)C(=O)N[C@@H](C)C(=O)NCC(=O)N[C@@H](CCSC)C(=O)N[C@@H](CCCNC(=N)N)C(=O)N[C@@H](Cc1ccccc1)C(=O)NCC(=O)N[C@@H](CCCNC(=N)N)C(=O)N2` (stereo partly shown) [Compound 27, peptide(SEQ ID NO: 105)-[dimethyladipic acid]-Dex] (X1-GSGVPINVRCRGSRDCLDPCRRAGMRFGRCINSRCHCTP-OH; disulfide 10-30, 16-35, 20-37 (inferred); C-terminus assumed), the “ankle swelling over time as compared to vehicle” value (0.2 mg/kg and 0.5 mg/kg Dex equivalents IV days 11 and 12) was “reduction in ankle swelling”. Moreover, under “0.2 mg/kg and 0.5 mg/kg dose”, the spleen weight entry is given as “reduction”, the thymus weight result is on record as “reduction” and the total body weight result is given as “reduction”. Besides, where the note is “0.2 mg/kg dose”, the “change in median ankle diameter between day 11 and day 13 as compared to vehicle” value is listed as “statistically significant reduction in ankle diameter”; the “difference from Dex in change in ankle diameter” value is “no statistically significant difference”. The mortality and tolerability entry (1 mg/kg Dex equivalents IV, some rats) is “died overnight”.
